Results published in patent US20230348854A1.

Tests used:
[1] = biological target: Human NKp46 (NCR1, CD335), on cells (human) (UniProt O76036); assay: cell-based or functional assay
[2] = biological target: Human CD94/NKG2A inhibitory receptor (CD159a), on NK cells (human) (UniProt Q13241); assay: cell-based or functional assay

UniProt O76036, sequence (O76036 22-304 Q82K limits assumed): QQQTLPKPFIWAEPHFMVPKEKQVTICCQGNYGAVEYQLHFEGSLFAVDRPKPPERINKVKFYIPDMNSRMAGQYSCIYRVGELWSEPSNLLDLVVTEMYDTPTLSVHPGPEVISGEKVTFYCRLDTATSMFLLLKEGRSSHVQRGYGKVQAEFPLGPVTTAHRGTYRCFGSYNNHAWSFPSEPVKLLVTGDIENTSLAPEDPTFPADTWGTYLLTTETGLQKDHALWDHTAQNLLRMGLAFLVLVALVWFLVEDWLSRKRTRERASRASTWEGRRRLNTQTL

| Substance | percentage of live NKp46-expressing K562 target cells after 24 hours with CAR T cells, 2:1 [1] [%] | autologous primary NK cells killed, 2:1 E:T [2] [%] |
| --- | --- | --- |
| anti-CD19 CAR (αCD19 control CAR), expressed on primary human T cells (scFv) | 16.2 |  |
| anti-NKG2A (HLA-E) CAR (αNKG2A CAR): G peptide/B2M/HLA-E 01:03 single-chain trimer fused to 4-1BB/CD3 zeta, expressed on primary human T cells (peptide-MHC) |  | 64 |
